Experiments:
Assay in all cases: radioligand binding; HEK293 cells expressing ACKR3-YFP or mutants, pretreated 5 min at 37 °C with 100 μM phenylarsine oxide; 50 pM 125I-CXCL12 tracer in 50 mM HEPES pH 7.4, 5 mM MgCl2, 1 mM CaCl2, 0.2% BSA, with or without unlabeled CXCL12 or CXCL11, 30 min at 37 °C; bound label counted in a γ counter; IC50 taken as proxy for ligand affinity
Conditions in all cases: one partner purified
ACKR3 R142A-YFP = target: T1, ACKR3 R142A-YFP (UniProt P25106 1-362, R142A)
T1 construct: ACKR3 (CXCR7) with R142A (Ballesteros-Weinstein 3.50), made by PCR in ACKR3-YFP; also called R142^3.50A; ACKR3 R142^3.50A; source: HEK293, transiently transfected (polyethyleneimine), on or in cells; not shown: YFP, C-terminal, kept

ACKR3 N127S-YFP = target: T2, ACKR3 N127S-YFP (UniProt P25106 1-362, N127S)
T2 construct: ACKR3 (CXCR7) with N127S (Ballesteros-Weinstein 3.35), made by PCR in ACKR3-YFP; also called N127^3.35S; source: HEK293, transiently transfected (polyethyleneimine), on or in cells; not shown: YFP, C-terminal, kept

[1] = target: T3, ACKR3-YFP (wildtype ACKR3 fused C-terminally to YFP) (UniProt P25106 1-362)
T3 construct: atypical chemokine receptor 3 (ACKR3, also known as CXCR7); also called CXCR7; receptor-YFP fusion; source: HEK293, transiently transfected (polyethyleneimine), on or in cells; not shown: YFP, C-terminal, kept

ACKR3 N127K-YFP = target: T4, ACKR3 N127K-YFP (UniProt P25106 1-362, N127K)
T4 construct: ACKR3 (CXCR7) with N127K (Ballesteros-Weinstein 3.35), made by PCR in ACKR3-YFP; also called N127^3.35K; source: HEK293, transiently transfected (polyethyleneimine), on or in cells; not shown: YFP, C-terminal, kept

ACKR3 N127D-YFP = target: T5, ACKR3 N127D-YFP (UniProt P25106 1-362, N127D)
T5 construct: ACKR3 (CXCR7) with N127D (Ballesteros-Weinstein 3.35), made by PCR in ACKR3-YFP; also called N127^3.35D; source: HEK293, transiently transfected (polyethyleneimine), on or in cells; not shown: YFP, C-terminal, kept

ACKR3 D90N-YFP = target: T6, ACKR3 D90N-YFP (UniProt P25106 1-362, D90N)
T6 construct: ACKR3 (CXCR7) with D90N (Ballesteros-Weinstein 2.50), made by PCR in ACKR3-YFP; also called D90^2.50N; source: HEK293, transiently transfected (polyethyleneimine), on or in cells; not shown: YFP, C-terminal, kept

ACKR3 D141N-YFP = target: T7, ACKR3 D141N-YFP (UniProt P25106 1-362, D141N)
T7 construct: ACKR3 (CXCR7) with D141N (Ballesteros-Weinstein 3.49), made by PCR in ACKR3-YFP; also called D141^3.49N; source: HEK293, transiently transfected (polyethyleneimine), on or in cells; not shown: YFP, C-terminal, kept

ACKR3 Y315A-YFP = target: T8, ACKR3 Y315A-YFP (UniProt P25106 1-362, Y315A)
T8 construct: ACKR3 (CXCR7) with Y315A (Ballesteros-Weinstein 7.53), made by PCR in ACKR3-YFP; also called Y315^7.53A; source: HEK293, transiently transfected (polyethyleneimine), on or in cells; not shown: YFP, C-terminal, kept

ACKR3 Y143A-YFP = target: T9, ACKR3 Y143A-YFP (UniProt P25106 1-362, Y143A)
T9 construct: ACKR3 (CXCR7) with Y143A (Ballesteros-Weinstein 3.51), made by PCR in ACKR3-YFP; also called Y143^3.51A; source: HEK293, transiently transfected (polyethyleneimine), on or in cells; not shown: YFP, C-terminal, kept
T9 sequence (P25106 whole entry Y143A): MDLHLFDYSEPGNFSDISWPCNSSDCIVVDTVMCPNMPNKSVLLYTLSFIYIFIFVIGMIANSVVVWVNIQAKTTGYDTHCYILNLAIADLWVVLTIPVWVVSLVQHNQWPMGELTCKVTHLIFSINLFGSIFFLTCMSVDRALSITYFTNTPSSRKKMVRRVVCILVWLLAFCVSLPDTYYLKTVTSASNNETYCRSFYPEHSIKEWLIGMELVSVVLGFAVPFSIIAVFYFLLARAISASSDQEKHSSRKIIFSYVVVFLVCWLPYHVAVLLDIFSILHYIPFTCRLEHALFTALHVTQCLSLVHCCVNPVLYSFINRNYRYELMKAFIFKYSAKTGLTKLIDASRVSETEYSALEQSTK

T5 sequence (P25106 whole entry N127D): as the sequence (P25106 whole entry Y143A) above, with N127D, A143Y counted along it
T1 sequence (P25106 whole entry R142A): as the sequence (P25106 whole entry Y143A) above, with R142A, A143Y counted along it
T6 sequence (P25106 whole entry D90N): as the sequence (P25106 whole entry Y143A) above, with D90N, A143Y counted along it
T8 sequence (P25106 whole entry Y315A): as the sequence (P25106 whole entry Y143A) above, with A143Y, Y315A counted along it
T2 sequence (P25106 whole entry N127S): as the sequence (P25106 whole entry Y143A) above, with N127S, A143Y counted along it
T7 sequence (P25106 whole entry D141N): as the sequence (P25106 whole entry Y143A) above, with D141N, A143Y counted along it
T3 sequence (P25106 whole entry, the tested form may be a part): as the sequence (P25106 whole entry Y143A) above, with A143Y counted along it
T4 sequence (P25106 whole entry N127K): as the sequence (P25106 whole entry Y143A) above, with N127K, A143Y counted along it

B1: CXCL11 (unlabeled recombinant chemokine) (ligand, human, UniProt O14625 22-94, looked up)
chain: FPMFKRGRCLCIGPGVKAVKVADIEKASIMYPSNNCDKIEVIITLKENKGQRCLNPKSKQARLIIKKVERKNF
notes: chemokine CXCL11 (I-TAC); called human CXCL11 in the text on scavenging by MEFs; also called I-TAC; unlabeled CXCL11; source: recombinant; gift from Amanda Nevins and Brian Volkman or from PeproTech Inc
IC50 (ACKR3 R142A-YFP): 44.8 nM
Log IC50 (ACKR3 R142A-YFP): -7.4
IC50 (ACKR3 N127S-YFP): 3.7 nM
Log IC50 (ACKR3 N127S-YFP): -8.5
IC50 [1]: 39.1 nM
Log IC50 [1]: -7.4
IC50 (ACKR3 N127K-YFP): 11 nM
Log IC50 (ACKR3 N127K-YFP): -7.9
IC50 (ACKR3 N127D-YFP): 6.6 nM
Log IC50 (ACKR3 N127D-YFP): -8
IC50 (ACKR3 D90N-YFP): 35.9 nM
Log IC50 (ACKR3 D90N-YFP): -7.5
IC50 (ACKR3 D141N-YFP): 4.8 nM
Log IC50 (ACKR3 D141N-YFP): -8.3
IC50 (ACKR3 Y315A-YFP): 19.1 nM
Log IC50 (ACKR3 Y315A-YFP): -7.7
IC50 (ACKR3 Y143A-YFP): 15.4 nM
Log IC50 (ACKR3 Y143A-YFP): -7.8

Reference: publication PMC5777261 (The Journal of Biological Chemistry, 2017)
